Measurements as given in patent US20160362672.

Columns and labels:
[1] = biological target: T1, soluble tissue factor (sTF), P13726
T1 chain: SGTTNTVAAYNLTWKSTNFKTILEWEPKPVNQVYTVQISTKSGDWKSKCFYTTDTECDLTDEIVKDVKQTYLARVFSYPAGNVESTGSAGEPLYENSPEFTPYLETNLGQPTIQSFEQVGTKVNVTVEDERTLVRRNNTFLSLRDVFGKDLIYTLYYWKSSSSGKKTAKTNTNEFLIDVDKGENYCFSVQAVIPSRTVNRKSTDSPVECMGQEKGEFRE

FXI protease (activated factor XI, FXIa)
Concentration by Activity (ng/ml), aPTT based factor assay (FIX-DFTRVVG-XTEN_AE864): 9 ng/mL | Fraction Active (FIX-DFTRVVG-XTEN_AE864): 34% | enhancement of clotting activity against FIX-XTEN without a cleavage site (aPTT based factor assay) (FIX-DFTRVVG-XTEN_AE864): In all three cases the presence of a FXI cleavage site enhanced the clotting activity by greater than 30-fold | Concentration by Activity (ng/ml), aPTT based factor assay (FIX-/FXI/-XTEN_AE864): 11 ng/mL | Fraction Active (FIX-/FXI/-XTEN_AE864): 40% | enhancement of clotting activity against FIX-XTEN without a cleavage site (aPTT based factor assay) (FIX-/FXI/-XTEN_AE864): In all three cases the presence of a FXI cleavage site enhanced the clotting activity by greater than 30-fold | Concentration by Activity (ng/ml), aPTT based factor assay (FIX-KLTRAET-XTEN_AE864): 7 ng/mL | Fraction Active (FIX-KLTRAET-XTEN_AE864): 30% | enhancement of clotting activity against FIX-XTEN without a cleavage site (aPTT based factor assay) (FIX-KLTRAET-XTEN_AE864): In all three cases the presence of a FXI cleavage site enhanced the clotting activity by greater than 30-fold

B1: FVIIa-AE288 (protein)
chain: AVFVTQEEAHGVLHRRRRANAFLEELRPGSLERECKEEQCSFEEAREIFKDAERTKLFWISYSDGDQCASSPCQNGGSCKDQLQSYICFCLPAFEGRNCETHKDDQLICVNENGGCEQYCSDHTGTKRSCRCHEGYSLLADGVSCTPTVEYPCGKIPILEKRNASKPQGRIVGGKVCPKGECPWQVLLLVNGAQLCGGTLINTIWVVSAAHCFDKIKNWRNLIAVLGEHDLSEHDGDEQSRRVAQVIIPSTYVPGTTNHDIALLRLHQPVVLTDHVVPLCLPERTFSERTLAFVRFSLVSGWGQLLDRGATALELMVLNVPRLMTQDCLQQSRKVGDSPNITEYMFCAGYSDGSKDSCKGDSGGPHATHYRGTWYLTGIVSWGQGCATVGHFGVYTRVSQYIEWLQKLMRSEPRPGVLLRAPFPGSPGTSESATPESGPGSEPATSGSETPGTSESATPESGPGSEPATSGSETPGTSESATPESGPGTSTEPSEGSAPGSPAGSPTSTEEGTSESATPESGPGSEPATSGSETPGTSESATPESGPGSPAGSPTSTEEGSPAGSPTSTEEGTSTEPSEGSAPGTSESATPESGPGTSESATPESGPGTSESATPESGPGSEPATSGSETPGSEPATSGSETPGSPAGSPTSTEEGTSTEPSEGSAPGTSTEPSEGSAPGSEPATSGSETPGTSESATPESGPGTSTEPSEGSAPGSSS
FVIIa activity by soluble tissue factor (sTF) induced clotting (Stago STA-Clot FVIIa activity assay kit) [1]: an activity equivalent to 112 U/ml of FVIIa activity
